# Reference: article PMC8602277, “Crystal structures of the elusive Rhizobium etliL-asparaginase reveal a peculiar active site” (Nature Communications, 2021)
# Assays:
# [1] = substrate: NC(=O)C[C@H](N)C(=O)O; experiment: ITC, multiple injection mode, Michaelis-Menten fit; assay type: biochemical, Rhizobium etli; settings: 30 mM phosphate pH 9.0, 37 °C, Zn-containing native enzyme, Hill coefficient 1.6 by separate Hill fit
# [2] = biological target: the molecule itself; experiment: SEC; analytical Superdex75 10/300 GL column, 50 mM phosphate buffer pH 7.5 with 20 mM NaCl, room temperature
# [3] = biological target: the molecule itself; experiment: crystal structure; WT ReAV in four crystal forms (OP, MP1, MP2, MC) plus the S-SAD START data set; one or two dimers in the asymmetric unit; crystals grown at 19 °C by hanging drop vapor diffusion
Protein,stoichiometry N [2],also measured
"ReAV (inducible R. etli L-asparaginase, AnsA) (Rhizobium etli CFN 42) (protein, full-length wild type, 367 residues, expressed in E. coli BL21 STAR (DE3) from pET151-D-TOPO, N-terminal His6-tag cut with TEV protease; homodimer, one Zn2+ per subunit) MTPSEDFVVTDRGGIVENSHRVHAAVVDAKGRLLYALGNPTRMTLARSAAKPAQALAILETEGVAGYGFDDADIALMCASHSSEDRHIARTRAMLSKIKAEEADLRCGGHPSLSEMVNRSWIKQDFIPTAVCSNCSGKHVGMLAGARAIGAGTDGYHLPDHPMQGRVKRTVAELCDLDAGDVEWGTDGCNLPTPAFPLDRLGRIYAKLASAADGSDAGEGQSTRCAALAHIFRAMARHPEMVAGEGRYCTMLMRAFDGALVGKLGADASYAIGVRASDATRQLGTDGALGISVKIEDGNLEMLYAVVTELLERLGIGSPDVRSQLASFHHPQRVNTMGVTTGGVSFPFKLRGSKSNVDDPRLAAVAR",,Km [1]: 4.2 ± 0.3 mM; kcat [1]: 438 ± 32 s⁻¹
"ReAV S80A mutant (enzyme, Rhizobium etli (strain CFN 42), inducible L-asparaginase ReAV (AnsA) of Rhizobium etli strain CFN 42; printed length 367 residues; CD spectra indicate incorrect folding or strong structural distortion; source: E. coli BL21 STAR (DE3), mostly in inclusion bodies, soluble part purified as the WT protein; not shown: His6, N-terminal, cleaved) MTPSEDFVVTDRGGIVENSHRVHAAVVDAKGRLLYALGNPTRMTLARSAAKPAQALAILETEGVAGYGFDDADIALMCAAHSSEDRHIARTRAMLSKIKAEEADLRCGGHPSLSEMVNRSWIKQDFIPTAVCSNCSGKHVGMLAGARAIGAGTDGYHLPDHPMQGRVKRTVAELCDLDAGDVEWGTDGCNLPTPAFPLDRLGRIYAKLASAADGSDAGEGQSTRCAALAHIFRAMARHPEMVAGEGRYCTMLMRAFDGALVGKLGADASYAIGVRASDATRQLGTDGALGISVKIEDGNLEMLYAVVTELLERLGIGSPDVRSQLASFHHPQRVNTMGVTTGGVSFPFKLRGSKSNVDDPRLAAVAR",2,
"ReAV C135A mutant (enzyme, Rhizobium etli (strain CFN 42), inducible L-asparaginase ReAV (AnsA) of Rhizobium etli strain CFN 42; printed length 367 residues; source: E. coli BL21 STAR (DE3), purified as the WT protein; not shown: His6, N-terminal, cleaved) MTPSEDFVVTDRGGIVENSHRVHAAVVDAKGRLLYALGNPTRMTLARSAAKPAQALAILETEGVAGYGFDDADIALMCASHSSEDRHIARTRAMLSKIKAEEADLRCGGHPSLSEMVNRSWIKQDFIPTAVCSNASGKHVGMLAGARAIGAGTDGYHLPDHPMQGRVKRTVAELCDLDAGDVEWGTDGCNLPTPAFPLDRLGRIYAKLASAADGSDAGEGQSTRCAALAHIFRAMARHPEMVAGEGRYCTMLMRAFDGALVGKLGADASYAIGVRASDATRQLGTDGALGISVKIEDGNLEMLYAVVTELLERLGIGSPDVRSQLASFHHPQRVNTMGVTTGGVSFPFKLRGSKSNVDDPRLAAVAR",2,
"ReAV S48A mutant (enzyme, Rhizobium etli (strain CFN 42), inducible L-asparaginase ReAV (AnsA) of Rhizobium etli strain CFN 42; printed length 367 residues; CD spectra indicate incorrect folding or strong structural distortion; source: E. coli BL21 STAR (DE3), mostly in inclusion bodies, soluble part purified as the WT protein; not shown: His6, N-terminal, cleaved) MTPSEDFVVTDRGGIVENSHRVHAAVVDAKGRLLYALGNPTRMTLARAAAKPAQALAILETEGVAGYGFDDADIALMCASHSSEDRHIARTRAMLSKIKAEEADLRCGGHPSLSEMVNRSWIKQDFIPTAVCSNCSGKHVGMLAGARAIGAGTDGYHLPDHPMQGRVKRTVAELCDLDAGDVEWGTDGCNLPTPAFPLDRLGRIYAKLASAADGSDAGEGQSTRCAALAHIFRAMARHPEMVAGEGRYCTMLMRAFDGALVGKLGADASYAIGVRASDATRQLGTDGALGISVKIEDGNLEMLYAVVTELLERLGIGSPDVRSQLASFHHPQRVNTMGVTTGGVSFPFKLRGSKSNVDDPRLAAVAR",2,
"ReAV K51A mutant (enzyme, Rhizobium etli (strain CFN 42), inducible L-asparaginase ReAV (AnsA) of Rhizobium etli strain CFN 42; printed length 367 residues; source: E. coli BL21 STAR (DE3), purified as the WT protein; not shown: His6, N-terminal, cleaved) MTPSEDFVVTDRGGIVENSHRVHAAVVDAKGRLLYALGNPTRMTLARSAAAPAQALAILETEGVAGYGFDDADIALMCASHSSEDRHIARTRAMLSKIKAEEADLRCGGHPSLSEMVNRSWIKQDFIPTAVCSNCSGKHVGMLAGARAIGAGTDGYHLPDHPMQGRVKRTVAELCDLDAGDVEWGTDGCNLPTPAFPLDRLGRIYAKLASAADGSDAGEGQSTRCAALAHIFRAMARHPEMVAGEGRYCTMLMRAFDGALVGKLGADASYAIGVRASDATRQLGTDGALGISVKIEDGNLEMLYAVVTELLERLGIGSPDVRSQLASFHHPQRVNTMGVTTGGVSFPFKLRGSKSNVDDPRLAAVAR",2,
"ReAV K263A mutant (enzyme, Rhizobium etli (strain CFN 42), inducible L-asparaginase ReAV (AnsA) of Rhizobium etli strain CFN 42; printed length 367 residues; source: E. coli BL21 STAR (DE3), purified as the WT protein; not shown: His6, N-terminal, cleaved) MTPSEDFVVTDRGGIVENSHRVHAAVVDAKGRLLYALGNPTRMTLARSAAKPAQALAILETEGVAGYGFDDADIALMCASHSSEDRHIARTRAMLSKIKAEEADLRCGGHPSLSEMVNRSWIKQDFIPTAVCSNCSGKHVGMLAGARAIGAGTDGYHLPDHPMQGRVKRTVAELCDLDAGDVEWGTDGCNLPTPAFPLDRLGRIYAKLASAADGSDAGEGQSTRCAALAHIFRAMARHPEMVAGEGRYCTMLMRAFDGALVGALGADASYAIGVRASDATRQLGTDGALGISVKIEDGNLEMLYAVVTELLERLGIGSPDVRSQLASFHHPQRVNTMGVTTGGVSFPFKLRGSKSNVDDPRLAAVAR",2,
"inducible Rhizobium etli L-asparaginase ReAV, wild type (enzyme, Rhizobium etli (strain CFN 42), Cys249 most likely oxidized, modeled as S-hydroxycysteine in the crystal structures, inducible L-asparaginase ReAV (AnsA) of Rhizobium etli strain CFN 42, encoded on plasmid p42e; printed length 367 residues; also called WT ReAV; AnsA; source: E. coli BL21 STAR (DE3), purified (HisTrap Ni, TEV cleavage, second HisTrap Ni, Superdex 200); not shown: His6, N-terminal, cleaved) MTPSEDFVVTDRGGIVENSHRVHAAVVDAKGRLLYALGNPTRMTLARSAAKPAQALAILETEGVAGYGFDDADIALMCASHSSEDRHIARTRAMLSKIKAEEADLRCGGHPSLSEMVNRSWIKQDFIPTAVCSNCSGKHVGMLAGARAIGAGTDGYHLPDHPMQGRVKRTVAELCDLDAGDVEWGTDGCNLPTPAFPLDRLGRIYAKLASAADGSDAGEGQSTRCAALAHIFRAMARHPEMVAGEGRYCTMLMRAFDGALVGKLGADASYAIGVRASDATRQLGTDGALGISVKIEDGNLEMLYAVVTELLERLGIGSPDVRSQLASFHHPQRVNTMGVTTGGVSFPFKLRGSKSNVDDPRLAAVAR",,stoichiometry N [3]: 2
